Assay results published in the supplement of paper PMC9170038.

What was measured:
MS2 coat protein [1] = assay: apparent KD of MS2 coat protein, switch ON state; designed switch direction (-1 OFF switch, 1 ON switch): -1; higher = weaker reporter binding; conditions: FMN input: 0 or 200 uM; Eterna round: R93 (includes R88 designs)
How it was run: (§1)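 The buffer was 100 mM Tris-HCl pH 7.5 with 80 mM KCl and 4 mM MgCl2, used without or with constant ligand. In it, RNA switches transcribed on-chip from Illumina sequencing clusters were titrated with SNAP-549-labelled MS2 coat protein in twofold steps from 0.7 or 1.5 nM to 3 µM. Apparent KD for each design is the median of its normalised cluster binding-curve fits.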

MS2 coat protein [2] = assay: apparent KD of MS2 coat protein, switch OFF state (with FMN for OFF switches, without FMN for ON switches); designed switch direction (-1 OFF switch, 1 ON switch): -1; higher = weaker reporter binding; conditions: FMN input: 0 or 200 uM; Eterna round: R93 (includes R88 designs)
How it was run: as §1

Row | Sequence | apparent KD of MS2 coat protein (MS2 coat protein [1]) [nM] | apparent KD of MS2 coat protein (MS2 coat protein [2]) [nM]
1 | AAAAAACAUGAGGAUCACCCAUGUCAGGAUAUCUGUAUAAAUAAAAAAAUAAAAAUACAGAGAAGGGACAAAAA [Ex1: 608] | 50.5 | 51.7
2 | AAAAAACAUGAGGAUCACCCAUGUGAGGAUAUACAAAACCCAUAUAAAAAGGGAAAAAGUAGAAGGCGCAAAAA [wbt round 1 mod 8] | 20.8 | 24.3
3 | AAAAAACAUGAGGAUCACCCAUGUGAGGAUAUACAGAAUGGAAUAAAAUAACAAGAAAGUAGAAGGCACAAAAA [Ex 1 May 38] | 36.2 | 41.6
4 | AAAAAACAUGAGGAUCACCCAUGUGAGGAUAUCCUGAAUGAAAUAAAAUAUCUCGAAAGGAGAAGGCGCAAAAA [Ex 1 May 33] | 67.7 | 49.9
5 | AAAAAACAUGAGGAUCACCCAUGUGAGGAUAUCGCUAGUGAGACCCUAGUGUCAGUGAUGAGAAGGCACAUAAA [Brourd 613 Mod 8 - Jieux - Exclusion 1] | 32.8 | 32.5
6 | AAAAAACAUGAGGAUCACCCAUGUGAGGAUAUGAAAAAACAAAAAAAAAAGUAAACAAUCAGAAGGCACAACAA [JR_Exc--1_Sub1211] | 27.3 | 24.4
7 | AAAAAACAUGAGGAUCACCCAUGUGAGGAUAUGAAAAUACUAAGACAACAGUAAUCAAUCAGAAGGCACAACAA [JR_Exc--1_Sub1209] | 20.1 | 25.8
8 | AAAAAACAUGAGGAUCACCCAUGUGAGGAUAUGACGUAAAUAAAGAAAGAAUAAAUCGUCAGAAGGCACACCAA [Mat - Exclusion 1 - Eli mod - D71] | 31.4 | 49.2
9 | AAAAAACAUGAGGAUCACCCAUGUGAGGAUAUGACGUAAAUAAAGAAAUAAGAAAUCGUCAGAAGGCACAAAAA [Mat - Exclusion 1 - Eli mod - D73] | 28.6 | 41.7
10 | AAAAAACAUGAGGAUCACCCAUGUGAGGAUAUGCUAAAAAAAAUAAAAAUAAAACAUAGCAGAAGGCACACCAA [Amethyst 57] | 28.2 | 38.4
11 | AAAAAACAUGAGGAUCACCCAUGUGAGGAUAUUAAAAAUAAGAAGGCAUAAAAAAAAAUAAGAAGGCACAUGAA [Meechl MS2 Ex1] | 27.9 | 33.2
12 | AAAAAACAUGAGGAUCACCCAUGUGAGGAUAUUGGUAUUAAAGACACCCACUUAAUGGCGAGAAGGCGCAAAAA [Brourd 613 Mod 19 - Jieux - Exclusion 1] | 25.5 | 27.5
13 | AAAAAACAUGAGGAUCACCCAUGUUAGGAUAUGCAGAGGGAAAAAAAAAAAAAAAAAAGCAGAAGGAACAUAAA [Design1] | 31.5 | 26.5
14 | AAAAAAGGAGGAUAUACGAACAUGUCAAAAGACGUGAAGGGACAUGAGGAUCACCCAUGUAGAAGGCCUAAAAA [JL Part Open 34] | 35.4 | 60.8
15 | AAAAAAGGAGGAUAUACGAACAUGUCGAAAGACGUGAAGGGACAUGAGGAUCACCCAUGUAGAAGGCUUAAAAA [Mat - Exclusion 2 - JL mod - D69] | 37 | 23.9
16 | AAAAAAGGAGGAUAUACGUACAUGUCAAAAGACGUGAAGGGACAUGAGGAUCACCCAUGUAGAAGGCCUAAAAA [JL Part Open 33] | 45.2 | 78.3
17 | AAAAAAUCAGGAUAUACAUGAGGAUCACCCAUGUGAAAGAACGAUUAACGACCAGCAAGUAGAAGGGAUAAAAA [Ruby 81] | 18.1 | 19.7
18 | AAAAAAUGAGGAUAUACAUGAGGAUCACCCAUGUAAAAGGUCAGGGUGGCGGAGGACGGUAGAAGGCAUAAAAA [Excls3-X] | 21.6 | 18.2
19 | AAAAACAGAGGAUAUACAAAAUUAUGACGAAAGUCAUAAAAACAUGAGGAUCACCCAUGUAGAAGGCUGGAAAA [Mat - Mod of Meechl] | 28.5 | 22.7
20 | AAAAACGGAGGAUAUACAAAUUAAGGAAGAAAACACGAAAAACAUGAGGAUCACCCAUGUAGAAGGCCGGAAAA [Ex 2 #3] | 24.1 | 29.7
21 | AAAAACUCAGGAUAUAUUAUGGGACAAUGAAGGAAGAUAAAACAUGAGGAUCACCCAUGUAGAAGGGAGAAAAA [JR_Exclusion2_Sub2] | 57.7 | 62.8
22 | AAAAACUGAGGAUAUACAUGAGGAUCACCCAUGUGAAAGAAAGAAAAAAGAAAAGAAAGUAGAAGGCAGAAAAA [Ruby 76] | 34 | 29.5
23 | AAAAACUGAGGAUAUACGAAAAAAAAAAAAAAAAAAAAAAAACAUGAGGAUCACCCAUGUAGAAGGCAGAAAAA [exclusion 02 - A] | 41.4 | 57.5

Row | Sequence | apparent KD of MS2 coat protein (MS2 coat protein [1]) [nM] | apparent KD of MS2 coat protein (MS2 coat protein [2]) [nM]
24 | AAAAACUGAGGAUAUACUUUGGGAAAAGAAAAGAUGAUGUUACAUGAGGAUCACCCAUGUAGAAGGCAGAAAAA [Mat - Exclusion 2 - Mod - D154] | 25.4 | 43
25 | AAAAAGAUAGGAUAUACGAACAUGUCAAAAGACGUGAAGGGACAUGAGGAUCACCCAUGUAGAAGGGUUAAAAA [JL Wide Open 38] | 155 | 66.6
26 | AAAAAGAUAGGAUAUACGUACAUGUCGAAAGACGUGAAGGGACAUGAGGAUCACCCAUGUAGAAGGGUUAAAAA [Mat - Exclusion 2 - JL mod - D91] | 185 | 52.4
27 | AAAAAGCGAGGAUAUACAUAGCUAAGACAAAUAAGCAAAAAACAUGAGGAUCACCCAUGUAGAAGGCGCAAAAA [Exclusion2-01] | 19.6 | 15.4
28 | AAAAAGCGAGGAUAUACAUAGCUAAGACAAAUAAGCAAGGGACAUGAGGAUCACCCAUGUAGAAGGCGCAAAAA [Exclusion 2-01... 60% 1] | 34.7 | 97.3
29 | AAAAAGCGAGGAUAUACAUGAGGAUCACCCAUGUCAAAAGAAUAUAAAGAAAUAGGAAGUAGAAGGCGCAAAAA [Ex 3 #3] | 67.1 | 56.4
30 | AAAAAGCGAGGAUAUACAUGAGGAUCACCCAUGUGAAAAAAAAAAAAAAAAAAAAAAAGUAGAAGGCGCAAAAA [GC super strong! + G boost] | 46.4 | 39.2
31 | AAAAAGCGAGGAUAUACAUGAGGAUCACCCAUGUGAAAAAAAAAAAAAAAAAAAAAAAGUAGAAGGCGCAAAAA [H20 RNA] | 46.4 | 39.2
32 | AAAAAGCGAGGAUAUACGAGUCAAAGAAAAGACAAAAAGGGACAUGAGGAUCACCCAUGUAGAAGGCGCAAAAA [Fiskers exclusion D2 62% 3] | 30.5 | 47.1
33 | AAAAAGGAAGGAUAUACAUGAGGAUCACCCAUGUAAAAAAAAAAAAAGGGAAAAAAAAGUAGAAGGUCCAAAAA [Montuemsaf Djedankhre] | 33 | 40.9
34 | AAAAAGGAAGGAUAUACGAACAUGUCAAAAGACGUGAAGGGACAUGAGGAUCACCCAUGUAGAAGGUCCAAAAA [JL Half Open 23] | 83.4 | 99.6
35 | AAAAAGGAAGGAUAUACGAACAUGUCAAAAGACGUGAAGGGACAUGAGGAUCACCCAUGUAGAAGGUUCAAAAA [JL Half Open 24] | 38.7 | 18.5
36 | AAAAAGGCAGGAUAUACAAAAAAAAAAAAAAAAAAGGAGGGACAUGAGGAUCACCCAUGUAGAAGGGCCAAAAA [Kai Theodor Erikson] | 97.4 | 121
37 | AAAAAGGCAGGAUAUACAUGAGGAUCACCCAUGUAAAGAAAAGAAAGAUCCAAAGAAAGUAGAAGGGCCAAAAA [Ex3 sub 3] | 48.8 | 170
38 | AAAAAGGCAGGAUAUACAUGAGGAUCACCCAUGUGCAAAAAAAAAAAAAAAAAAACAUGUAGAAGGGCCGAAAA [Skynet (1?)] | 45.2 | 86.3
39 | AAAAAGGCAGGAUAUACGAGUCAAAGAAAAGACAAAAGGAGACAUGAGGAUCACCCAUGUAGAAGGGCCAAAAA [Fiskers exclusion D2 62% 5] | 36.8 | 48.8
40 | AAAAAGGGAGGAUAUACAACACAGACAGAACAACAAACACAACAUGAGGAUCACCCAUGUAGAAGGCCCAAAAA [Default title] | 28.2 | 35.4
41 | AAAAAGGGAGGAUAUACAGGAGGUCAAAAAAAAAAAAAAAAACAUGAGGAUCACCCAUGUAGAAGGCUUAAAAA [Ecls2-III] | 26.7 | 27.3
42 | AAAAAGGGAGGAUAUACAUGAGGAUCACCCAUGUAAAAAAAAAAAAAAGGGAGGGAAGGUAGAAGGCCCAAAAA [Excls3-II] | 39.6 | 52.5
43 | AAAAAGGGAGGAUAUACAUGAGGAUCACCCAUGUAGCAGACGAAAAAGAGUCUGUAAUGUAGAAGGCCCAAAAA [65%, Moding Exclusion3-cac2, 4] | 16.2 | 32.2
44 | AAAAAGGGAGGAUAUACGAAACAGGGAAACCUGAAAAAGGGACAUGAGGAUCACCCAUGUAGAAGGCCCAAGAA [Clint Eastwood 64% 5] | 40.2 | 268
45 | AAAAAGGGAGGAUAUGCAAAGGGAAAGGGAAAGGGAAAGGGACAUGAGGAUCACCCAUGUAGAAGGCUCAAAAA [scarecrow2] | 56.1 | 34
